# Target: protein A/G
# Experiment: SPR; real-time, microfluidic cell on the nanostructured gold film, white light and CCD detector, 0.1 Hz; protein A/G (0.5 mg/mL, 1 h, 30 uL/min) immobilised, flushed with PBS; IgG 10 ug/mL injected at 30 uL/min; 10 mM PBS
substance,measurement,value
IgG (antibody),resonance peak shift at 10 ug/mL IgG,2 nm
